According to US20260265379A1:

Target: BTN3A expressed at the cell surface (human), O00481
Test: cell-based or functional assay

Chain of BTN3A expressed at the cell surface (human), O00481 (O00481 30-513): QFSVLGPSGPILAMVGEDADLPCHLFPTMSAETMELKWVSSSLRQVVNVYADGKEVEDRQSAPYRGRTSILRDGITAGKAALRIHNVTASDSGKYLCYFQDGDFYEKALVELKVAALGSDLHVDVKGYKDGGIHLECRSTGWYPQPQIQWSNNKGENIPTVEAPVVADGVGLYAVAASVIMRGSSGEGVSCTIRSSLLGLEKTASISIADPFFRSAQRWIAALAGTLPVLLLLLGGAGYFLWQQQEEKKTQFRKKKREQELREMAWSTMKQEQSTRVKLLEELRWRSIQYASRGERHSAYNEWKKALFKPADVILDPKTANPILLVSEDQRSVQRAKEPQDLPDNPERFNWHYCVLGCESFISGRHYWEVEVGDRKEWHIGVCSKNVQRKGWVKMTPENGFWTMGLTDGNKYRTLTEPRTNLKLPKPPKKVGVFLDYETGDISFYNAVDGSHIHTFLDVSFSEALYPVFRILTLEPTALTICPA

Row | Binder | Jurkat-Vy9Vo2 TCR MOP activation at 0.5 nM (fold-change to medium) | Jurkat-Vy9Vo2 TCR MOP activation at 5 nM (fold-change to medium)
1 | bsAb024 (bispecific antibody) heavy: QVQLVQSGAEVKKPGASVKLSCKASGYIFTRYYMYWVKQRPGQGLEWIGEINPNNGGTKFNEKFKNRATLTVDKSISTAYMELSRLRSDDTAVYYCSREDDYDGTPFAMDYWGQGTLVTVSSGGGGSGGGGSGGGGSGGGGSDIQMTQSPSSLSASVGDRVTITCHASQNINVWLSWYQQKPGKAPKLLIYKASNLHTGVPSRFTGSGSGTDFTFTISSLQPEDIATYYCQQGQTYPYTFGQGTKLEIKGGGGSGGGGSGGGGSGGGGSEVQLVESGGGLVQPGGSLRLSCAASGFTFSRYWMSWVRQAPGKGLEWVANIKQDGSEKYYVDSVKGRFTISRDNAKNSLYLQMNSLRAEDTAVYYCAREGGWFGELAFDYWGQGTLVTVSSASTKGPSVFPLAPSSKSTSGGTAALGCLVKDYFPEPVTVSWNSGALTSGVHTFPAVLQSSGLYSLSSVVTVPSSSLGTQTYICNVNHKPSNTKVDKRVEPKSCDKTHTCPPCPAPEFEGGPSVFLFPPKPKDTLMISRTPEVTCVVVDVSHEDPEVKFNWYVDGVEVHNAKTKPREEQYNSTYRVVSVLTVLHQDWLNGKEYKCKVSNKALPASIEKTISKAKGQPREPQVYTLPPSREEMTKNQVSLTCLVKGFYPSDIAVEWESNGQPENNYKTTPPVLDSDGSFFLYSKLTVDKSRWQQGNVFSCSVMHEALHNHYTQKSLSLSPG light: EIVLTQSPGTLSLSPGERATLSCRASQRVSSSYLAWYQQKPGQAPRLLIYDASSRATGIPDRFSGSGSGTDFTLTISRLEPEDFAVYYCQQYGSLPWTFGQGTKVEIKRTVAAPSVFIFPPSDEQLKSGTASVVCLLNNFYPREAKVQWKVDNALQSGNSQESVTEQDSKDSTYSLSSTLTLSKADYEKHKVYACEVTHQGLSSPVTKSFNRGEC | 1 | 1
2 | bsAb036 (bispecific antibody, not shown: small tags and cut ends; a dimerising Fc or GST) heavy (part 1 of 2): EVQLVESGGGLVQPGGSLRLSCAASGFTFSRYWMSWVRQAPGKGLEWVANIKQDGSEKYYVDSVKGRFTISRDNAKNSLYLQMNSLRAEDTAVYYCAREGGWFGELAFDYWGQGTLVTVSS heavy (part 2 of 2): GGGGSGGGGSGGGGSGGGGSQVQLVQSGAEVKKPGASVKLSCKASGYIFTRYYMYWVKQRPGQGLEWIGEINPNNGGTKFNEKFKNRATLTVDKSISTAYMELSRLRSDDTAVYYCSREDDYDGTPFAMDYWGQGTLVTVSSGGGGSGGGGSGGGGSGGGGSDIQMTQSPSSLSASVGDRVTITCHASQNINVWLSWYQQKPGKAPKLLIYKASNLHTGVPSRFTGSGSGTDFTFTISSLQPEDIATYYCQQGQTYPYTFGQGTKLEIK heavy: GGGGSGGGGSGGGGSGGGGSQVQLVQSGAEVKKPGASVKLSCKASGYIFTRYYMYWVKQRPGQGLEWIGEINPNNGGTKFNEKFKNRATLTVDKSISTAYMELSRLRSDDTAVYYCSREDDYDGTPFAMDYWGQGTLVTVSSGGGGSGGGGSGGGGSGGGGSDIQMTQSPSSLSASVGDRVTITCHASQNINVWLSWYQQKPGKAPKLLIYKASNLHTGVPSRFTGSGSGTDFTFTISSLQPEDIATYYCQQGQTYPYTFGQGTKLEIK light: EIVLTQSPGTLSLSPGERATLSCRASQRVSSSYLAWYQQKPGQAPRLLIYDASSRATGIPDRFSGSGSGTDFTLTISRLEPEDFAVYYCQQYGSLPWTFGQGTKVEIKRTVAAPSVFIFPPSDEQLKSGTASVVCLLNNFYPREAKVQWKVDNALQSGNSQESVTEQDSKDSTYSLSSTLTLSKADYEKHKVYACEVTHQGLSSPVTKSFNRGEC | 0.9 | 0.9
3 | bsAb041 (bispecific antibody, not shown: small tags and cut ends; a dimerising Fc or GST) heavy (part 1 of 2): EVQLVESGGGLVQPGGSLRLSCAASGFTFSRYWMSWVRQAPGKGLEWVANIKQDGSEKYYVDSVKGRFTISRDNAKNSLYLQMNSLRAEDTAVYYCAREGGWFGELAFDYWGQGTLVTVSS heavy (part 2 of 2): GGGGSGGGGSGGGGSGGGGSDIQMTQSPSSLSASVGDRVTITCHASQNINVWLSWYQQKPGKAPKLLIYKASNLHTGVPSRFTGSGSGTDFTFTISSLQPEDIATYYCQQGQTYPYTFGQGTKLEIKGGGGSGGGGSGGGGSGGGGSQVQLVQSGAEVKKPGASVKLSCKASGYIFTRYYMYWVKQRPGQGLEWIGEINPNNGGTKFNEKFKNRATLTVDKSISTAYMELSRLRSDDTAVYYCSREDDYDGTPFAMDYWGQGTLVTVSS heavy: GGGGSGGGGSGGGGSGGGGSDIQMTQSPSSLSASVGDRVTITCHASQNINVWLSWYQQKPGKAPKLLIYKASNLHTGVPSRFTGSGSGTDFTFTISSLQPEDIATYYCQQGQTYPYTFGQGTKLEIKGGGGSGGGGSGGGGSGGGGSQVQLVQSGAEVKKPGASVKLSCKASGYIFTRYYMYWVKQRPGQGLEWIGEINPNNGGTKFNEKFKNRATLTVDKSISTAYMELSRLRSDDTAVYYCSREDDYDGTPFAMDYWGQGTLVTVSS light: EIVLTQSPGTLSLSPGERATLSCRASQRVSSSYLAWYQQKPGQAPRLLIYDASSRATGIPDRFSGSGSGTDFTLTISRLEPEDFAVYYCQQYGSLPWTFGQGTKVEIKRTVAAPSVFIFPPSDEQLKSGTASVVCLLNNFYPREAKVQWKVDNALQSGNSQESVTEQDSKDSTYSLSSTLTLSKADYEKHKVYACEVTHQGLSSPVTKSFNRGEC | 0.9 | 1

Second part, the binder after the results:

Row | Jurkat-Vy9Vo2 TCR MOP activation at 0.5 nM (fold-change to medium) | Jurkat-Vy9Vo2 TCR MOP activation at 5 nM (fold-change to medium) | Binder
4 | 1.1 | 1 | bsAb020 (bispecific antibody) heavy: DIQMTQSPSSLSASVGDRVTITCHASQNINVWLSWYQQKPGKAPKLLIYKASNLHTGVPSRFTGSGSGTDFTFTISSLQPEDIATYYCQQGQTYPYTFGQGTKLEIKGGGGSGGGGSGGGGSGGGGSQVQLVQSGAEVKKPGASVKLSCKASGYIFTRYYMYWVKQRPGQGLEWIGEINPNNGGTKFNEKFKNRATLTVDKSISTAYMELSRLRSDDTAVYYCSREDDYDGTPFAMDYWGQGTLVTVSSGGGGSGGGGSGGGGSGGGGSEVQLVESGGGLVQPGGSLRLSCAASGFTFSRYWMSWVRQAPGKGLEWVANIKQDGSEKYYVDSVKGRFTISRDNAKNSLYLQMNSLRAEDTAVYYCAREGGWFGELAFDYWGQGTLVTVSSASTKGPSVFPLAPSSKSTSGGTAALGCLVKDYFPEPVTVSWNSGALTSGVHTFPAVLQSSGLYSLSSVVTVPSSSLGTQTYICNVNHKPSNTKVDKRVEPKSCDKTHTCPPCPAPEFEGGPSVFLFPPKPKDTLMISRTPEVTCVVVDVSHEDPEVKFNWYVDGVEVHNAKTKPREEQYNSTYRVVSVLTVLHQDWLNGKEYKCKVSNKALPASIEKTISKAKGQPREPQVYTLPPSREEMTKNQVSLTCLVKGFYPSDIAVEWESNGQPENNYKTTPPVLDSDGSFFLYSKLTVDKSRWQQGNVFSCSVMHEALHNHYTQKSLSLSPG light: EIVLTQSPGTLSLSPGERATLSCRASQRVSSSYLAWYQQKPGQAPRLLIYDASSRATGIPDRFSGSGSGTDFTLTISRLEPEDFAVYYCQQYGSLPWTFGQGTKVEIKRTVAAPSVFIFPPSDEQLKSGTASVVCLLNNFYPREAKVQWKVDNALQSGNSQESVTEQDSKDSTYSLSSTLTLSKADYEKHKVYACEVTHQGLSSPVTKSFNRGEC
5 | 2.8 | 1 | bsAb054 (bispecific antibody, not shown: small tags and cut ends) heavy (part 1 of 2): EVQLVESGGGLVQPGGSLRLSCAASGFTFSRYWMSWVRQAPGKGLEWVANIKQDGSEKYYVDSVKGRFTISRDNAKNSLYLQMNSLRAEDTAVYYCAREGGWFGELAFDYWGQGTLVTVSS heavy (part 2 of 2): GGGGSGGGGSGGGGSGGGGSQVQLVQSGAEVKKPGASVKLSCKASGYIFTRYYMYWVKQRPGQGLEWIGEINPNNGGTKFNEKFKNRATLTVDKSISTAYMELSRLRSDDTAVYYCSREDDYDGTPFAMDYWGQGTLVTVSSGGGGSGGGGSGGGGSGGGGSDIQMTQSPSSLSASVGDRVTITCHASQNINVWLSWYQQKPGKAPKLLIYKASNLHTGVPSRFTGSGSGTDFTFTISSLQPEDIATYYCQQGQTYPYTFGQGTKLEIK heavy: EVQLVESGGGLVQPGGSLRLSCAASGFTFSRYWMSWVRQAPGKGLEWVANIKQDGSEKYYVDSVKGRFTISRDNAKNSLYLQMNSLRAEDTAVYYCAREGGWFGELAFDYWGQGTLVTVSS light: EIVLTQSPGTLSLSPGERATLSCRASQRVSSSYLAWYQQKPGQAPRLLIYDASSRATGIPDRFSGSGSGTDFTLTISRLEPEDFAVYYCQQYGSLPWTFGQGTKVEIKRTVAAPSVFIFPPSDEQLKSGTASVVCLLNNFYPREAKVQWKVDNALQSGNSQESVTEQDSKDSTYSLSSTLTLSKADYEKHKVYACEVTHQGLSSPVTKSFNRGEC
6 | 2.4 | 3.8 | bsAb069 (bispecific antibody, not shown: small tags and cut ends; a dimerising Fc or GST) heavy 1: EVQLVESGGGLVQPGGSLRLSCAASGFTFSRYWMSWVRQAPGKGLEWVANIKQDGSEKYYVDSVKGRFTISRDNAKNSLYLQMNSLRAEDTAVYYCAREGGWFGELAFDYWGQGTLVTVSS heavy 2: DIQMTQSPSSLSASVGDRVTITCHASQNINVWLSWYQQKPGKAPKLLIYKASNLHTGVPSRFTGSGSGTDFTFTISSLQPEDIATYYCQQGQTYPYTFGQGTKLEIKGGGGSGGGGSGGGGSGGGGSQVQLVQSGAEVKKPGASVKLSCKASGYIFTRYYMYWVKQRPGQGLEWIGEINPNNGGTKFNEKFKNRATLTVDKSISTAYMELSRLRSDDTAVYYCSREDDYDGTPFAMDYWGQGTLVTVSSGGGGSGGGGSGGGGSGGGGS light: EIVLTQSPGTLSLSPGERATLSCRASQRVSSSYLAWYQQKPGQAPRLLIYDASSRATGIPDRFSGSGSGTDFTLTISRLEPEDFAVYYCQQYGSLPWTFGQGTKVEIKRTVAAPSVFIFPPSDEQLKSGTASVVCLLNNFYPREAKVQWKVDNALQSGNSQESVTEQDSKDSTYSLSSTLTLSKADYEKHKVYACEVTHQGLSSPVTKSFNRGECGGGGSGGGGSGGGGSGGGGSQVQLVQSGAEVKKPGASVKLSCKASGYIFTRYYMYWVKQRPGQGLEWIGEINPNNGGTKFNEKFKNRATLTVDKSISTAYMELSRLRSDDTAVYYCSREDDYDGTPFAMDYWGQGTLVTVSSGGGGSGGGGSGGGGSGGGGSDIQMTQSPSSLSASVGDRVTITCHASQNINVWLSWYQQKPGKAPKLLIYKASNLHTGVPSRFTGSGSGTDFTFTISSLQPEDIATYYCQQGQTYPYTFGQGTKLEIK
